According to publication PMC7641732, “Structural basis of prostate-specific membrane antigen recognition by the A9g RNA aptamer”:

Molecular target: human PSMA extracellular part (wtPSMA) (human, UniProt Q04609 44-750)
Experiment: X-ray crystallography 2.2 A; 2-PMPA, active-site Zn2+; IC50: 20 mM Tris, 150 mM NaCl, pH 8.0, 37 C preincubation 10 min; flow cytometry: 10 mM Tris, 150 mM NaCl, pH 7.4, 0.5% fish gelatin (inhibitor preincubation 4)
Conditions: protein: recombinant; tags: N-terminal Strep-FLAG; chain copies: 2; stem-loop: S1 7 bp, 4x1 internal loop, S2 4 bp, 16-nt hairpin loop

Sequence of human PSMA extracellular part (wtPSMA) (Q04609 44-750): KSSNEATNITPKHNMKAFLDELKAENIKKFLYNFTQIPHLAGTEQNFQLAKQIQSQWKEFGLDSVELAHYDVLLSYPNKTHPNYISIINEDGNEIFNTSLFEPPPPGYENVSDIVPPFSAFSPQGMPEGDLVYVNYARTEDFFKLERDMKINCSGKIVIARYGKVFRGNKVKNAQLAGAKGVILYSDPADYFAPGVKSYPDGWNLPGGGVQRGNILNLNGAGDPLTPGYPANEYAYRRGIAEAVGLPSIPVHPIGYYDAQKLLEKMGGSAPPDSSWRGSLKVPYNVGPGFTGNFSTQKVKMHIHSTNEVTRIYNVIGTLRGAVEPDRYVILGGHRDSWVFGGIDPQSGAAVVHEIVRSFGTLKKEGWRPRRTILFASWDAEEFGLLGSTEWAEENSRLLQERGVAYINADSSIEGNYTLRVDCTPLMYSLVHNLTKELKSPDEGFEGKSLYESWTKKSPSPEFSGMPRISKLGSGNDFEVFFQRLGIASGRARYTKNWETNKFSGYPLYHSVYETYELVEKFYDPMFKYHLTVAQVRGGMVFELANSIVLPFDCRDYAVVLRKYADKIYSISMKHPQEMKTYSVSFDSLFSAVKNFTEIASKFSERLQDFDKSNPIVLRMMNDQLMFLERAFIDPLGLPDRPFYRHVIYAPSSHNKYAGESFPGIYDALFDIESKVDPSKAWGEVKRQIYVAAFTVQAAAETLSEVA

GGGACCGAAAAAGACCUGACUUCUAUACUAAGUCUACGUUCCC (structured_RNA, 2'-deoxy-2'-fluoro on all C and U) [A9g]
binding result: binds
